Patent US20180009871A1 (INTARCIA THERAPEUTICS, published 2018)
Where no end group is shown, it is not given here. [ ]: non-standard residue; d: D form. Aib = CC(C)(N)C(=O)O

Tests used:
[1] = molecular target: human glucagon receptor (GCGR) (human, UniProt P47871 26-477); experiment: cell-based or functional assay
[2] = molecular target: human GLP-1 receptor (GLP-1R) (human, UniProt P43220 24-463); experiment: cell-based or functional assay
Sequence of human GLP-1 receptor (GLP-1R) (P43220 24-463): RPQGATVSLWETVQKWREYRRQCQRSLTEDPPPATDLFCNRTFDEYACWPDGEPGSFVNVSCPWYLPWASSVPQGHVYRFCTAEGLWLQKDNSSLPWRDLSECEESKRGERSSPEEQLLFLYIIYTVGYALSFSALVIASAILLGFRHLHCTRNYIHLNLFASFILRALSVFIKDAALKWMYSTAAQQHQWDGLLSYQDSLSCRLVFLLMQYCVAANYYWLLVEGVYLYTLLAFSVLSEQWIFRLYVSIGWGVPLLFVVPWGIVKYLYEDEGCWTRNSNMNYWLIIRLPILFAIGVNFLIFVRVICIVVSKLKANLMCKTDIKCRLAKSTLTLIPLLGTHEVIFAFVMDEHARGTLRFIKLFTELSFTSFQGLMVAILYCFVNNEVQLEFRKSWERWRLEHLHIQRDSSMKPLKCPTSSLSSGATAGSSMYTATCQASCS

Binder	hGCGR pEC50 (cAMP) [1]	hGLP1 pEC50 (cAMP) [2]
YSHGTFTSDYSKYLD[Aib]KRAQEFV[Aib]WLEEEPSSGAPPPS-OH (N-terminus assumed; SMILES CC(C)C[C@H](NC(=O)[C@H](Cc1ccc(O)cc1)NC(=O)[C@H](CCCCN)NC(=O)[C@H](CO)NC(=O)[C@H](Cc1ccc(O)cc1)NC(=O)[C@H](CC(=O)O)NC(=O)[C@H](CO)NC(=O)[C@@H](NC(=O)[C@H](Cc1ccccc1)NC(=O)[C@@H](NC(=O)CNC(=O)[C@H](Cc1c[nH]cn1)NC(=O)[C@H](CO)NC(=O)[C@@H](N)Cc1ccc(O)cc1)[C@@H](C)O)[C@@H](C)O)C(=O)N[C@@H](CC(=O)O)C(=O)NC(C)(C)C(=O)N[C@@H](CCCCN)C(=O)N[C@@H](CCCNC(=N)N)C(=O)N[C@@H](C)C(=O)N[C@@H](CCC(N)=O)C(=O)N[C@@H](CCC(=O)O)C(=O)N[C@@H](Cc1ccccc1)C(=O)N[C@H](C(=O)NC(C)(C)C(=O)N[C@@H](Cc1c[nH]c2ccccc12)C(=O)N[C@@H](CC(C)C)C(=O)N[C@@H](CCC(=O)O)C(=O)N[C@@H](CCC(=O)O)C(=O)N[C@@H](CCC(=O)O)C(=O)N1CCC[C@H]1C(=O)N[C@@H](CO)C(=O)N[C@@H](CO)C(=O)NCC(=O)N[C@@H](C)C(=O)N1CCC[C@H]1C(=O)N1CCC[C@H]1C(=O)N1CCC[C@H]1C(=O)N[C@@H](CO)C(=O)O)C(C)C) [Compound A9]	13 pEC50	< 9 pEC50
YSHGTFTSDYSKYLD[Aib]KRAQEFV[Aib]WLEDEPSSGAPPPS-NH2 (N-terminus assumed; SMILES CC(C)C[C@H](NC(=O)[C@H](Cc1ccc(O)cc1)NC(=O)[C@H](CCCCN)NC(=O)[C@H](CO)NC(=O)[C@H](Cc1ccc(O)cc1)NC(=O)[C@H](CC(=O)O)NC(=O)[C@H](CO)NC(=O)[C@@H](NC(=O)[C@H](Cc1ccccc1)NC(=O)[C@@H](NC(=O)CNC(=O)[C@H](Cc1c[nH]cn1)NC(=O)[C@H](CO)NC(=O)[C@@H](N)Cc1ccc(O)cc1)[C@@H](C)O)[C@@H](C)O)C(=O)N[C@@H](CC(=O)O)C(=O)NC(C)(C)C(=O)N[C@@H](CCCCN)C(=O)N[C@@H](CCCNC(=N)N)C(=O)N[C@@H](C)C(=O)N[C@@H](CCC(N)=O)C(=O)N[C@@H](CCC(=O)O)C(=O)N[C@@H](Cc1ccccc1)C(=O)N[C@H](C(=O)NC(C)(C)C(=O)N[C@@H](Cc1c[nH]c2ccccc12)C(=O)N[C@@H](CC(C)C)C(=O)N[C@@H](CCC(=O)O)C(=O)N[C@@H](CC(=O)O)C(=O)N[C@@H](CCC(=O)O)C(=O)N1CCC[C@H]1C(=O)N[C@@H](CO)C(=O)N[C@@H](CO)C(=O)NCC(=O)N[C@@H](C)C(=O)N1CCC[C@H]1C(=O)N1CCC[C@H]1C(=O)N1CCC[C@H]1C(=O)N[C@@H](CO)C(N)=O)C(C)C) [Compound A8]	12.3 pEC50	< 9 pEC50
YSHGTFTSDYSKYLD[Aib]KRAQEFV[Aib]WLEDEGAPPPS-OH (N-terminus assumed; SMILES CC(C)C[C@H](NC(=O)[C@H](Cc1ccc(O)cc1)NC(=O)[C@H](CCCCN)NC(=O)[C@H](CO)NC(=O)[C@H](Cc1ccc(O)cc1)NC(=O)[C@H](CC(=O)O)NC(=O)[C@H](CO)NC(=O)[C@@H](NC(=O)[C@H](Cc1ccccc1)NC(=O)[C@@H](NC(=O)CNC(=O)[C@H](Cc1c[nH]cn1)NC(=O)[C@H](CO)NC(=O)[C@@H](N)Cc1ccc(O)cc1)[C@@H](C)O)[C@@H](C)O)C(=O)N[C@@H](CC(=O)O)C(=O)NC(C)(C)C(=O)N[C@@H](CCCCN)C(=O)N[C@@H](CCCNC(=N)N)C(=O)N[C@@H](C)C(=O)N[C@@H](CCC(N)=O)C(=O)N[C@@H](CCC(=O)O)C(=O)N[C@@H](Cc1ccccc1)C(=O)N[C@H](C(=O)NC(C)(C)C(=O)N[C@@H](Cc1c[nH]c2ccccc12)C(=O)N[C@@H](CC(C)C)C(=O)N[C@@H](CCC(=O)O)C(=O)N[C@@H](CC(=O)O)C(=O)N[C@@H](CCC(=O)O)C(=O)NCC(=O)N[C@@H](C)C(=O)N1CCC[C@H]1C(=O)N1CCC[C@H]1C(=O)N1CCC[C@H]1C(=O)N[C@@H](CO)C(=O)O)C(C)C) [Compound A12]	13.2 pEC50	< 9 pEC50
YSHGTFTSDYSKYLD[Aib]KRAQEFV[Aib]WLEDEEEPSSGAPPPS-OH (N-terminus assumed; SMILES CC(C)C[C@H](NC(=O)[C@H](Cc1ccc(O)cc1)NC(=O)[C@H](CCCCN)NC(=O)[C@H](CO)NC(=O)[C@H](Cc1ccc(O)cc1)NC(=O)[C@H](CC(=O)O)NC(=O)[C@H](CO)NC(=O)[C@@H](NC(=O)[C@H](Cc1ccccc1)NC(=O)[C@@H](NC(=O)CNC(=O)[C@H](Cc1c[nH]cn1)NC(=O)[C@H](CO)NC(=O)[C@@H](N)Cc1ccc(O)cc1)[C@@H](C)O)[C@@H](C)O)C(=O)N[C@@H](CC(=O)O)C(=O)NC(C)(C)C(=O)N[C@@H](CCCCN)C(=O)N[C@@H](CCCNC(=N)N)C(=O)N[C@@H](C)C(=O)N[C@@H](CCC(N)=O)C(=O)N[C@@H](CCC(=O)O)C(=O)N[C@@H](Cc1ccccc1)C(=O)N[C@H](C(=O)NC(C)(C)C(=O)N[C@@H](Cc1c[nH]c2ccccc12)C(=O)N[C@@H](CC(C)C)C(=O)N[C@@H](CCC(=O)O)C(=O)N[C@@H](CC(=O)O)C(=O)N[C@@H](CCC(=O)O)C(=O)N[C@@H](CCC(=O)O)C(=O)N[C@@H](CCC(=O)O)C(=O)N1CCC[C@H]1C(=O)N[C@@H](CO)C(=O)N[C@@H](CO)C(=O)NCC(=O)N[C@@H](C)C(=O)N1CCC[C@H]1C(=O)N1CCC[C@H]1C(=O)N1CCC[C@H]1C(=O)N[C@@H](CO)C(=O)O)C(C)C) [Compound A11]	11.2 pEC50	< 9 pEC50
YSHGTFTSDYSKYLD[Aib]ARAQEFV[Aib]WLEDEPSSGAPPPS-OH (N-terminus assumed; SMILES CC(C)C[C@H](NC(=O)[C@H](Cc1ccc(O)cc1)NC(=O)[C@H](CCCCN)NC(=O)[C@H](CO)NC(=O)[C@H](Cc1ccc(O)cc1)NC(=O)[C@H](CC(=O)O)NC(=O)[C@H](CO)NC(=O)[C@@H](NC(=O)[C@H](Cc1ccccc1)NC(=O)[C@@H](NC(=O)CNC(=O)[C@H](Cc1c[nH]cn1)NC(=O)[C@H](CO)NC(=O)[C@@H](N)Cc1ccc(O)cc1)[C@@H](C)O)[C@@H](C)O)C(=O)N[C@@H](CC(=O)O)C(=O)NC(C)(C)C(=O)N[C@@H](C)C(=O)N[C@@H](CCCNC(=N)N)C(=O)N[C@@H](C)C(=O)N[C@@H](CCC(N)=O)C(=O)N[C@@H](CCC(=O)O)C(=O)N[C@@H](Cc1ccccc1)C(=O)N[C@H](C(=O)NC(C)(C)C(=O)N[C@@H](Cc1c[nH]c2ccccc12)C(=O)N[C@@H](CC(C)C)C(=O)N[C@@H](CCC(=O)O)C(=O)N[C@@H](CC(=O)O)C(=O)N[C@@H](CCC(=O)O)C(=O)N1CCC[C@H]1C(=O)N[C@@H](CO)C(=O)N[C@@H](CO)C(=O)NCC(=O)N[C@@H](C)C(=O)N1CCC[C@H]1C(=O)N1CCC[C@H]1C(=O)N1CCC[C@H]1C(=O)N[C@@H](CO)C(=O)O)C(C)C) [Compound A7]	11.9 pEC50	< 9 pEC50
YSHGTFTSDYSKYLD[Aib]KRAQEFV[Aib]WLEDEEPSSGAPPPS-OH (N-terminus assumed; SMILES CC(C)C[C@H](NC(=O)[C@H](Cc1ccc(O)cc1)NC(=O)[C@H](CCCCN)NC(=O)[C@H](CO)NC(=O)[C@H](Cc1ccc(O)cc1)NC(=O)[C@H](CC(=O)O)NC(=O)[C@H](CO)NC(=O)[C@@H](NC(=O)[C@H](Cc1ccccc1)NC(=O)[C@@H](NC(=O)CNC(=O)[C@H](Cc1c[nH]cn1)NC(=O)[C@H](CO)NC(=O)[C@@H](N)Cc1ccc(O)cc1)[C@@H](C)O)[C@@H](C)O)C(=O)N[C@@H](CC(=O)O)C(=O)NC(C)(C)C(=O)N[C@@H](CCCCN)C(=O)N[C@@H](CCCNC(=N)N)C(=O)N[C@@H](C)C(=O)N[C@@H](CCC(N)=O)C(=O)N[C@@H](CCC(=O)O)C(=O)N[C@@H](Cc1ccccc1)C(=O)N[C@H](C(=O)NC(C)(C)C(=O)N[C@@H](Cc1c[nH]c2ccccc12)C(=O)N[C@@H](CC(C)C)C(=O)N[C@@H](CCC(=O)O)C(=O)N[C@@H](CC(=O)O)C(=O)N[C@@H](CCC(=O)O)C(=O)N[C@@H](CCC(=O)O)C(=O)N1CCC[C@H]1C(=O)N[C@@H](CO)C(=O)N[C@@H](CO)C(=O)NCC(=O)N[C@@H](C)C(=O)N1CCC[C@H]1C(=O)N1CCC[C@H]1C(=O)N1CCC[C@H]1C(=O)N[C@@H](CO)C(=O)O)C(C)C) [Compound A10]	11.3 pEC50	< 9 pEC50
WSQGTFTSDYSKYLD[Aib]KRAQEFV[Aib]WLEDEPSSGAPPPS-OH (N-terminus assumed; SMILES CC(C)C[C@H](NC(=O)[C@H](Cc1ccc(O)cc1)NC(=O)[C@H](CCCCN)NC(=O)[C@H](CO)NC(=O)[C@H](Cc1ccc(O)cc1)NC(=O)[C@H](CC(=O)O)NC(=O)[C@H](CO)NC(=O)[C@@H](NC(=O)[C@H](Cc1ccccc1)NC(=O)[C@@H](NC(=O)CNC(=O)[C@H](CCC(N)=O)NC(=O)[C@H](CO)NC(=O)[C@@H](N)Cc1c[nH]c2ccccc12)[C@@H](C)O)[C@@H](C)O)C(=O)N[C@@H](CC(=O)O)C(=O)NC(C)(C)C(=O)N[C@@H](CCCCN)C(=O)N[C@@H](CCCNC(=N)N)C(=O)N[C@@H](C)C(=O)N[C@@H](CCC(N)=O)C(=O)N[C@@H](CCC(=O)O)C(=O)N[C@@H](Cc1ccccc1)C(=O)N[C@H](C(=O)NC(C)(C)C(=O)N[C@@H](Cc1c[nH]c2ccccc12)C(=O)N[C@@H](CC(C)C)C(=O)N[C@@H](CCC(=O)O)C(=O)N[C@@H](CC(=O)O)C(=O)N[C@@H](CCC(=O)O)C(=O)N1CCC[C@H]1C(=O)N[C@@H](CO)C(=O)N[C@@H](CO)C(=O)NCC(=O)N[C@@H](C)C(=O)N1CCC[C@H]1C(=O)N1CCC[C@H]1C(=O)N1CCC[C@H]1C(=O)N[C@@H](CO)C(=O)O)C(C)C) [Compound A6]	11.7 pEC50	5.3 pEC50
